Source: patent US12630594B2, “Allergy antigen and epitope for same” (HOYU CO., LTD., priority 2017, dated 2026)
One block for each molecule: values may come before it.

System: IgE antibody in the serum of a fish-allergic patient
Assay: Immunoblotting of two-dimensional electrophoresis patterns of fish meat proteins with patient serum
Assay type: binding, human
Details: spots in two-dimensional electrophoresis gel of proteins in fish; patients diagnosed with immediate-type allergy
Experimental: Proteins contained in fish were analyzed by the aforementioned technique to identify antigens of an allergy to fish. To be specific, proteins were extracted from fish meat and subjected to two-dimensional electrophoresis under the conditions described below.
The electrophoresis in the first dimension was isoelectric focusing, which was performed using isoelectric focusing gels with a gel-strip length of 5 to 10 cm and a gel pH range of 3 to 10. The pH gradient of the gels in the direction of electrophoresis was as follows: with the total gel-strip length being taken as 1, the gel-strip length up to pH 5 was “a=0.15 to 0.3”, the gel-strip length from pH 5 to 7 was “b=0.4 to 0.7”, and the gel-strip length above pH 7 was “c=0.15 to 0.3”. More specifically, the isoelectric focusing was performed using the IPG gels, Immobiline Drystrip (pH3-10NL), produced by GE Healthcare Bio-Sciences Corporation (hereinafter abbreviated as “GE”). The electrophoresis system used was IPGphor produced by GE. The maximum current of the electrophoresis system was limited to 75 μA per gel strip. The voltage program adopted to perform the first-dimensional isoelectric focusing was as follows: (1) a constant voltage step was performed at a constant voltage of 300 V until the volt-hours reached 750 Vhr (the current variation width during electrophoresis for 30 minutes before the end of this step was 5 μA); (2) the voltage was increased gradually to 1000 V for 300 Vhr; (3) the voltage was further increased gradually to 5000 V for 4500 Vhr; and then (4) the voltage was held at a constant voltage of 5000 V until the total Vhr reached 12000.
The electrophoresis in the second dimension was SDS-PAGE, which was performed using polyacrylamide gels whose gel concentration at the distal end in the direction of electrophoresis was set to 3 to 6% and whose gel concentration at the proximal end was set to a higher value than that at the distal end. More specifically, the SDS-PAGE was performed using NuPAGE 4-12% Bris-Tris Gels (IPG well, Mini, 1 mm) produced by Life Technologies. The electrophoresis system used was XCell SureLock Mini-Cell produced by Life Technologies. The electrophoresis was run at a constant voltage of 200 V for about 45 minutes using an electrophoresis buffer composed of 50 mM MOPS, 50 mM Tris base, 0.1% (w/v) SDS and 1 mM EDTA.
Identification of antigens by immunoblotting was carried out by taking all the steps up to the step of “Second-dimensional SDS-PAGE” as described above in Example 1, followed by the steps of “Transfer to membrane”, “Immunoblotting” and “Analysis” as described below.
To be specific, proteins in the second-dimensional electrophoresis gels were transferred to a membrane (PVDF membrane) according to the following procedure. • (1) The PVDF membrane was immersed in 100% methanol followed by milliQ water, and then moved into the transfer buffer to hydrophilize the PVDF membrane. • (2) After sponge, filter paper, the second-dimensional electrophoresis gels treated by second-dimensional SDS-PAGE, the hydrophilized PVDF membrane, filter paper, and sponge were put in place in this order, the transfer system was energized at a constant voltage of 30 V for one hour. Immunoblotting
Immunoblotting of the membrane was carried out using, as a primary antibody, a serum sample from patient 1 with a fish allergy or a serum sample from a non-fish-allergic subject. This fish-allergic patient 1 was a patient diagnosed with immediate-type allergy to fish. […]

specific binding to IgE antibodies from fish-allergic patients: specific binding to IgE antibodies
B1: Alpha-1,4-glucan phosphorylase (protein)
chain: MSKPLSDHDRKKQISVRGLAGVENVAELKVAFNRHLHFTLVKDRNVASKRDYYFALANTVRDHLVGRWIRTQQYYYEKDPKRVYYISLEFYMGRTLQNTMVNLALENACDEAIYQLGLDMEELEDMEEDAGLGNGGLGRLAACFLDSMASLGLAAYGYGIRYEFGIFNQKIVNGWQVEEADDWLRYGNPWEKARPEYMRPVKFYGRTEHTPEGVKWVDTQVVLALPYDTPIPGYRNNIVNTMRLWSAKAPCDFNLKDFNVGGYIQAVLDRNLCENISRVLYPNDNFFEGKELRLKQEYFVVAATLQDIVRRFKASKFGSREIVRTDFAQLPNKVAIQLNDTHPAMAIPELMRVLVDEEKLEWDKAWDVCVRTCAYTNHTVLPEALERWPIDLFHHLLPRHLEIIYEINRRFLQYVASKFPGDNDRLRRMSLIEEGECKKVNMAHMCIVGSHAVNGVARIHSEILVATLFKDFYELDPHKFQNKTNGITPRRWLVMCNPGLAEVIAERIGEEFVRDLDQLKKLLKFIDDDAFIRDIAKVKQENKLKFAVHLEEHYKVKINPQSMFDFQVKRIHEYKRQLLNCLHMITYYNRIKKEPNKHWTPRTIMVGGKAAPGYHTAKMIIRLITAIGEVVNHDPVIGDRLKVIFLENYRVTLAEKAIPSADLSEQISTAGTEASGTGNMKFMLNGALTIGTMDGANVEMAEEAGEKNLFIFGMRVEEVDAMDAGKGYHASEYYNRIPELKQAMDQISGGFFSHKQPDLFKELVDLLMHHDRFKVFADYEAYIKSQDKVNELYKKPKEWTKMVIHNIAGCGKFSSDRTISQYAREIWGMEPSLEKIPAPDEQLK
modifications: Alpha-1,4 glucan phosphorylase

specific binding to IgE antibodies from fish-allergic patients: specific binding to IgE antibodies
B2: EEF1A2 binding protein-like (protein)
chain: MWKKKSKLTDQTATGQVGIKKRSKVPGVMITQYVEKIPDGKSHPDFTRKPIALTIQEGKFAFFKALVIGDPEPTVTWGRNNGDVSDTSKYVTKYDPATREHLFEMANVKPEQADTYKCFAANEFGRAVVTVVLNVIEVGFKKAQADSQVQPEAAVADFKSVLKRKSKIQPKMEKKEDGEIDPRFWELLISADKKDYESLMLEFGVTDFRFMLKTLNEIKKEREEEQAQFIENLANLKPIEVGPDGCATFSIDMDLIEQSSRIFLYKDGVMIPYSKELGDTIKHSLKIVGRKYQFSIRDLFPDDAGLYQVDVEDVNVFSTDFKIPMVDFLVKIQECKAMEREDAVFECVLSQPFGKIMWVGKNLPLEAGDKYDIEVSEDKLIHRLIIKDVAMVDKGIYAAVAGIKSCNAFLVVEADKGEPGKKKQRKTTRAGGAGVDLTAIAQEQAVKNTADREVLKEKVKAINDERAANATAAPETSAEAKAKVKVVEASQTGAPKQGPAVKGSDHKSVDNEGYSIKSGLSDVFALRGKKGELVCEMSHEVDGAWFKDGEKLSTTDGIAIVKDGTRHTMTIHSSSEDDTGVYHIEAGGFKSEAKVTVGELPAIDADDLHKFSKPVTIKVGQNASWKMPYTPQDNLEVKWFKDGKELKDGGGVKLVKEVKHSRLLLRECLRSDAGEIKIQLKNPFGTIEATSRLIVLDKPGPPEGPVEILETTSTVIELQWGAPKDDGGSPVTNYIIERQQLGQTVWKKMGDVAADKTTYRDRNVVHGKLYIYNIYAVNPEGTSDALQTEETMAGVLIFAGRPGAPKVVSASKTCINLKWEPPEDDGGIKIDGYQLEKRKKDTAQWIALNPVTEPIEVLEYAVKDVVEGAEYEFRVSAINVSGAGEFSLPSVMVTAKNPNMRPTFKDPEDFMVIRAGNSVRIKVLYEAEPPPEITWMKDNEPVSSFIQIINTEGCSQLVIPSTKRSDSGNYTIVAKNKVGEASFDIEVLVTDEPKPPGAVELEQIVHGKVIVSWEASPDQELDNRLYYMVAEHDSSTRMWHTVADRIFDNSYTANNIMPGREYHFKIYAKNDMGMSDPSMSPTWGINSNRIPINTNTPVEVSFEKPPSVLVPLKMHSPPKGFQMYMTCAIRGCPTPSVTWHLNNVCINGDSNYYITNSYGVCSMYILRVRPKDAGEYKVVAVNSFGKAECSTKLVVKD
modifications: EEF1A2 binding protein-like
